Numbering of substitutions follows the chain as printed. Names and notes keep the numbering of the source. Blank lines part the entries; values can stand above or below the binder they belong to.
Key:
[1] = target: T1, biotinylated-AviTag-haBiP^T229A-V461F (residues 27–635), unmodified (Chinese hamster, UniProt G3I8R9 27-635, T229A | V461F, biotin on the N-terminal Avi-tag); experiment: BLI; biotinylated BiP immobilised on streptavidin biosensor, activated with 2 mM ATP (BiP:ATP); TPR domain 62.5 nM to 16 µM, 50 s association and 50 s dissociation; HKMTx, 30 °C; one-phase global fit and steady-state one site fit; conditions: both partners purified
T1 construct: Chinese hamster BiP residues 27–635; identical to human BiP over this range; A GS linker stands between the Avi-tag and BiP residue 27; also called unmodified BiP; BiP:ATP; source: E. coli, purified; biotinylated in vitro with GST-BirA, made nucleotide-free, MonoQ; not shown: His6-Smt3, N-terminal, cleaved; Avi-tag (biotinylated), N-terminal, kept

[2] = target: T1, biotinylated-AviTag-haBiP^T229A-V461F …; experiment: BLI; biotinylated nucleotide-free BiP (BiP:Apo) immobilised on streptavidin biosensor, before ATP activation; 16 µM TPR domain for 50 s; HKMTx, 30 °C; conditions: both partners purified
[3] = target: T1, biotinylated-AviTag-haBiP^T229A-V461F …; experiment: BLI; biotinylated BiP or BiP-AMP immobilised on streptavidin biosensors, activated in 2 mM ATP for 200 s; apo FICD analytes at 50 nM unless otherwise specified; HKM with 0.05% Triton X-100, 30 °C; second dissociation step with 2 mM ATP; conditions: both partners purified
[4] = target: T2, AMPylated biotinylated-AviTag-haBiP^T229A-V461F (residues 27–635) (Chinese hamster, UniProt G3I8R9 27-635, T229A | V461F, AMP covalently attached to Thr518 (Thr518-AMP); biotin on the N-terminal Avi-tag); experiment: as above; conditions: both partners purified
T2 construct: Chinese hamster BiP residues 27–635; identical to human BiP over this range; A GS linker stands between the Avi-tag and BiP residue 27; also called AMPylated BiP; BiP-AMP; source: E. coli, purified; AMPylated in vitro with GST-TEV-FICD^E234G, biotinylated in vitro with GST-BirA, made nucleotide-free, MonoQ; not shown: His6-Smt3, N-terminal, cleaved; Avi-tag (biotinylated), N-terminal, kept

[5] = target: T3, lid-truncated BiP^T229A-V461F-AMP (residues 27–549) (Chinese hamster, UniProt G3I8R9 27-549, T229A | V461F, AMP covalently attached to Thr518 (Thr518-AMP)); experiment: crystal structure; heterodimer copurified by gel filtration (FICD:BiP-AMP mixed 1.5:1 with 250 µM ATP, 50 mM KCl, 2 mM MgCl2; TNKMT buffer), sitting drop vapour diffusion at 25 °C; two crystal forms (state 1, state 2); conditions: both partners purified
T3 construct: Chinese hamster BiP residues 27–549 (all but helix A of SBDα removed); identical to human BiP over this range; also called AMPylated BiP; BiP-AMP; source: E. coli, purified (Ni-NTA, Ulp1 cleavage, anion exchange, gel filtration); AMPylated in vitro with GST-TEV-FICD^E234G; not shown: His6-Smt3, N-terminal, cleaved

[6] = target: the molecule itself; experiment: contrast variation small-angle neutron scattering (SANS); complexes of partially deuterated and non-deuterated FICD^H363A and BiP-AMP copurified by gel filtration (1.25:1 BiP-AMP:FICD, 250 µM ATP) in TNKMT(0.2) at various %D2O; 4.3–5.5 mg/ml, 12 °C
[7] = target: T4, BiP^T229A-V461F-AMP (residues 27–635), 'full-length' AMPylated BiP (Chinese hamster, UniProt G3I8R9 27-635, T229A | V461F, AMP covalently attached to Thr518 (Thr518-AMP)); experiment: as above; conditions: both partners purified
T4 construct: Chinese hamster BiP residues 27–635 (lacks the unstructured acidic N-terminal region and the C-terminal region with KDEL); identical to human BiP over this range; The deAMPylation assays used BiP^T229A-V461F (UK2521) AMPylated in vitro; also called full-length BiP-AMP; hBiP-AMP; source: E. coli, purified (Ni-NTA, Ulp1 cleavage, anion exchange, gel filtration); AMPylated in vitro with …
T4 sequence (G3I8R9 27-635 T229A/V461F): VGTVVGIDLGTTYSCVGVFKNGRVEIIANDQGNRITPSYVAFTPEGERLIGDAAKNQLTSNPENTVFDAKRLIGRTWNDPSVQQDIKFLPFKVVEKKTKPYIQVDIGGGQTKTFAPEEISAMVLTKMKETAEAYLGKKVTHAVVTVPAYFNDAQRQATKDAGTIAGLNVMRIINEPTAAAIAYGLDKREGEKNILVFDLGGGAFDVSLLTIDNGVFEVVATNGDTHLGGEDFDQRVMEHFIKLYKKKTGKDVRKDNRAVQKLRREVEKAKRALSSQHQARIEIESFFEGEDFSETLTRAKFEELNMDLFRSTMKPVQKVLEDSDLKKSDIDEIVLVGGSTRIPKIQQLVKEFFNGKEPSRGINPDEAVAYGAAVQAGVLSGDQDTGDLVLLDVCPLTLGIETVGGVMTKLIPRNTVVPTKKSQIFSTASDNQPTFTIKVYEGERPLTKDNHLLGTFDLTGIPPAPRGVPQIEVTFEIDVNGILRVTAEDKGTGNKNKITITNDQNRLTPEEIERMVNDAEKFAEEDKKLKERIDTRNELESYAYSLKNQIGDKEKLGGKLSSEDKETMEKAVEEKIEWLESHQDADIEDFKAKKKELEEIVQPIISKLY

T2 sequence (G3I8R9 27-635 T229A/V461F): as above
T1 sequence (G3I8R9 27-635 T229A/V461F): as above
T3 sequence (G3I8R9 27-549 T229A/V461F): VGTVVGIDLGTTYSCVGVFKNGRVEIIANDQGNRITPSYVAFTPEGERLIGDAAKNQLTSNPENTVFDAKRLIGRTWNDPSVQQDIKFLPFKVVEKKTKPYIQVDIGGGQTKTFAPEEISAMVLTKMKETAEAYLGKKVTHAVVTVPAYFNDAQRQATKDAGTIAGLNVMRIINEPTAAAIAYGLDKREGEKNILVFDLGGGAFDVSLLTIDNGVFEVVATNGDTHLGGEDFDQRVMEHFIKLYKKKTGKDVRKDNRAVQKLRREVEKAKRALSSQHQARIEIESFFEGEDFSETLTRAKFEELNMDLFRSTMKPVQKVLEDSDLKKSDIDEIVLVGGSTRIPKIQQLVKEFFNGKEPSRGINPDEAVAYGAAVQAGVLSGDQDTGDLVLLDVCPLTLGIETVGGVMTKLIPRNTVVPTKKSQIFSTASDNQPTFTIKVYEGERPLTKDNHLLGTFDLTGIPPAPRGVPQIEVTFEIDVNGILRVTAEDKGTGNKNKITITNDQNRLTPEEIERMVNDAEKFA

Kd [1]: 1100 nM | Kd [2]: > 160000 nM
B1: isolated TPR domain of FICD (domain or fragment)
chain: LEARAALNQALEMKRQGKREKAQKLFMHALKMDPDFVDALTEFGIFSEEDKDIIQADYLYTRALTISPYH

binding result [3]: binds | binding result [4]: binds | binding result [5]: binds
B2: FICD^L258D-H363A (residues 104–445), monomeric, catalytically inactive (enzyme, human, UniProt Q9BVA6 104-445, looked up)
chain: LEARAALNQALEMKRQGKREKAQKLFMHALKMDPDFVDALTEFGIFSEEDKDIIQADYLYTRALTISPYHEKALVNRDRTLPLVEEIDQRYFSIIDSKVKKVMSIPKGNSALRRVMEETYYHHIYHTVAIEGNTLTLSEIRHILETRYAVPGKSDEEQNEVIGMHAAMKYINTTLVSRIGSVTISDVLEIHRRVLGYVDPVEAGRFRTTQVLVGHHIPPHPQDVEKQMQEFVQWLNSEEAMNLHPVEFAALAHYKLVYIAPFIDGNGRTSRLLMNLILMQAGYPPITIRKEQRSDYYHVLEAANEGDVRPFIRFIAKCTETTLDTLLFATTEYSVALPEAQP
notes: human FICD, predicted structured regions, residues 104–445; L258D makes FICD monomeric; H363A traps the deAMPylation substrate; also called monomeric FICD^L258D-H363A; UK2093; source: E. coli, purified (Ni-NTA, on-bead Ulp1 cleavage, anion exchange, gel filtration); not shown: His6-Smt3, N-terminal, cleaved

binding result [4]: binds
B3: dimeric FICD^H363A(TPRred): FICD^D160C-T183C-H363A-C421S, cysteines reduced (enzyme, human, UniProt Q9BVA6 104-445, looked up)
chain: B2 chain with D57C, T80C, D155L, C318S
notes: human FICD residues 104–445; The cysteine-reduced form of m11; also called TPRred (dimeric); source: E. coli, purified; not shown: His6-Smt3, N-terminal, cleaved

binding result [4]: binds
B4: dimeric FICD^H363A(TPRox): FICD^D160C-T183C-H363A-C421S, oxidised (enzyme, human, UniProt Q9BVA6 104-445, looked up)
chain: B2 chain with D57C, T80C, D155L, C318S
modifications: intramolecular disulfide bond between Cys160 and Cys183
notes: human FICD residues 104–445; also called TPRox (dimeric); source: E. coli, purified; oxidised with CuSO4 and 1,10-phenanthroline, Capto Q, RESOURCE Q, gel filtration; not shown: His6-Smt3, N-terminal, cleaved

binding result [3]: binds | binding result [4]: binds
B5: monomeric FICD^L258D-H363A(TPRox): FICD^D160C-T183C-L258D-H363A-C421S, oxidised (enzyme, human, UniProt Q9BVA6 104-445, looked up)
chain: B2 chain with D57C, T80C, C318S
modifications: intramolecular disulfide bond between Cys160 and Cys183
notes: human FICD residues 104–445; PDB entries hold the parent m1; also called TPRox (monomeric); source: E. coli, purified; oxidised with CuSO4 and 1,10-phenanthroline, Capto Q, RESOURCE Q, gel filtration; not shown: His6-Smt3, N-terminal, cleaved

binding result [7]: binds | binding result [3]: binds | binding result [4]: binds
B6: FICD^H363A (residues 104–445), dimeric, catalytically inactive (enzyme, human, UniProt Q9BVA6 104-445, looked up)
chain: B2 chain with D155L
notes: human FICD, predicted structured regions, residues 104–445; also called dimeric FICD; dimeric FICD^H363A; source: E. coli, purified (Ni-NTA, on-bead Ulp1 cleavage, anion exchange, gel filtration); matchout-deuterated form from E. coli BL21 Star (DE3), purified; not shown: His6-Smt3, N-terminal, cleaved
binding result [6]: binds
